Experimental data as given in the Human Domainome abundance scans (Beltran et al. 2025).
± gives the uncertainty stated by the source.

B1: 3'-5' exoribonuclease 1, residues 65 to 114; numbered along this chain, Q8IV48 (parent)
chain: VYKEIAITNGCINRMSKEELRAKLSEFKLETRGVKDVLKKRLKNYYKKQK

Variants of: B1
Assay: abundance fitness (aPCA) (normalised: wild type 0, dead -1); higher = more abundant; growth selection in yeast, the domain comes from the species named
Settings: Homo sapiens
In the case of VYKEIAITNGCINRMSKEELRALLSEFKLETRGVKDVLKKRLKNYYKKQK [K23L], the abundance fitness is reported as -0.176 ± 0.035.
With VYKEIAITNGCINRMSKEELRAQLSEFKLETRGVKDVLKKRLKNYYKKQK [K23Q] the abundance fitness was -0.11 ± 0.049.
For VYKEIAITNGCINRMSKEELRAGLSEFKLETRGVKDVLKKRLKNYYKKQK [K23G], the abundance fitness was -0.861 ± 0.043.
Variant VYKEIAITNGCINRMSKEELRAPLSEFKLETRGVKDVLKKRLKNYYKKQK [K23P] has an abundance fitness of -0.941 ± 0.061.
With VYKEIAITNGCINRMSKEELRASLSEFKLETRGVKDVLKKRLKNYYKKQK [K23S] the abundance fitness was -0.318 ± 0.039.
With VYKEIAITNGCINRMSKEELRAVLSEFKLETRGVKDVLKKRLKNYYKKQK [K23V] the abundance fitness was -0.182 ± 0.036.
For VYKEIAITNGCINRMSKEELRAELSEFKLETRGVKDVLKKRLKNYYKKQK [K23E], the abundance fitness was -0.56 ± 0.048.
For VYKEIAITNGCINRMSKEELRAHLSEFKLETRGVKDVLKKRLKNYYKKQK [K23H], the abundance fitness was -0.154 ± 0.062.
Variant VYKEIAITNGCINRMSKEELRATLSEFKLETRGVKDVLKKRLKNYYKKQK [K23T] has an abundance fitness of -0.172 ± 0.047.
Variant VYKEIAITNGCINRMSKEELRARLSEFKLETRGVKDVLKKRLKNYYKKQK [K23R] has an abundance fitness of -0.101 ± 0.036.
For VYKEIAITNGCINRMSKEELRACLSEFKLETRGVKDVLKKRLKNYYKKQK [K23C], the abundance fitness was -0.158 ± 0.057.
Work on VYKEIAITNGCINRMSKEELRAWLSEFKLETRGVKDVLKKRLKNYYKKQK [K23W] yielded an abundance fitness of -0.234 ± 0.044.
Variant VYKEIAITNGCINRMSKEELRAKLSVFKLETRGVKDVLKKRLKNYYKKQK [E26V] has an abundance fitness of -0.362 ± 0.054.
Variant VYKEIAITNGCINRMSKEELRAKLSYFKLETRGVKDVLKKRLKNYYKKQK [E26Y] has an abundance fitness of -0.153 ± 0.067.
For VYKEIAITNGCINRMSKEELRAKLSKFKLETRGVKDVLKKRLKNYYKKQK [E26K], the abundance fitness was -0.273 ± 0.08.
In the case of VYKEIAITNGCINRMSKEELRAKLSAFKLETRGVKDVLKKRLKNYYKKQK [E26A], the abundance fitness is reported as -0.202 ± 0.052.
For VYKEIAITNGCINRMSKEELRAKLSTFKLETRGVKDVLKKRLKNYYKKQK [E26T], the abundance fitness was -0.189 ± 0.068.
VYKEIAITNGCINRMSKEELRAKLSIFKLETRGVKDVLKKRLKNYYKKQK [E26I] showed an abundance fitness of -0.432 ± 0.081.
In the case of VYKEIAITNGCINRMSKEELRAKLSMFKLETRGVKDVLKKRLKNYYKKQK [E26M], the abundance fitness is reported as -0.267 ± 0.069.
With VYKEIAITNGCINRMSKEELRAKLSNFKLETRGVKDVLKKRLKNYYKKQK [E26N] the abundance fitness was -0.273 ± 0.083.
For VYKEIAITNGCINRMSKEELRAKLSGFKLETRGVKDVLKKRLKNYYKKQK [E26G], the abundance fitness was -0.24 ± 0.042.
Variant VYKEIAITNGCINRMSKEELRAKLSRFKLETRGVKDVLKKRLKNYYKKQK [E26R] has an abundance fitness of -0.472 ± 0.046.
With VYKEIAITNGCINRMSKEELRAKLSQFKLETRGVKDVLKKRLKNYYKKQK [E26Q] the abundance fitness was -0.102 ± 0.074.
VYKEIAITNGCINRMSKEELRAKLSPFKLETRGVKDVLKKRLKNYYKKQK [E26P] gave an abundance fitness of -0.964 ± 0.099.
VYKEIAITNGCINRMSKEELRAKLSDFKLETRGVKDVLKKRLKNYYKKQK [E26D] gave an abundance fitness of -0.119 ± 0.061.
Variant VYKEIAITNGCINRMSKEELRAKLSWFKLETRGVKDVLKKRLKNYYKKQK [E26W] has an abundance fitness of -0.406 ± 0.07.
In the case of VYKEIAITNGCINRMSKEELRAKLSLFKLETRGVKDVLKKRLKNYYKKQK [E26L], the abundance fitness is reported as -0.22 ± 0.053.
In the case of VYKEIAITNGCINRMSKEELRAKLSFFKLETRGVKDVLKKRLKNYYKKQK [E26F], the abundance fitness is reported as -0.169 ± 0.07.
With VYKEIAITNGCINRMSKEELRAKLSHFKLETRGVKDVLKKRLKNYYKKQK [E26H] the abundance fitness was -0.267 ± 0.079.
For VYKEIAITNGCINRMSKEELRAKLSCFKLETRGVKDVLKKRLKNYYKKQK [E26C], the abundance fitness was -0.31 ± 0.051.
VYKEIAITNGCINRMSKEELRAKLSSFKLETRGVKDVLKKRLKNYYKKQK [E26S] showed an abundance fitness of -0.185 ± 0.048.
With VYKEIAITNGCINRMSKEELRAKLSEWKLETRGVKDVLKKRLKNYYKKQK [F27W] the abundance fitness was -0.453 ± 0.044.
In the case of VYKEIAITNGCINRMSKEELRAKLSEPKLETRGVKDVLKKRLKNYYKKQK [F27P], the abundance fitness is reported as -0.914 ± 0.067.
Variant VYKEIAITNGCINRMSKEELRAKLSENKLETRGVKDVLKKRLKNYYKKQK [F27N] has an abundance fitness of 0.007 ± 0.058.
VYKEIAITNGCINRMSKEELRAKLSEEKLETRGVKDVLKKRLKNYYKKQK [F27E] showed an abundance fitness of -0.036 ± 0.062.
With VYKEIAITNGCINRMSKEELRAKLSEQKLETRGVKDVLKKRLKNYYKKQK [F27Q] the abundance fitness was -0.166 ± 0.048.
VYKEIAITNGCINRMSKEELRAKLSEKKLETRGVKDVLKKRLKNYYKKQK [F27K] gave an abundance fitness of -0.065 ± 0.049.
For VYKEIAITNGCINRMSKEELRAKLSEHKLETRGVKDVLKKRLKNYYKKQK [F27H], the abundance fitness was 0.062 ± 0.049.
VYKEIAITNGCINRMSKEELRAKLSELKLETRGVKDVLKKRLKNYYKKQK [F27L] gave an abundance fitness of 0.148 ± 0.034.
With VYKEIAITNGCINRMSKEELRAKLSECKLETRGVKDVLKKRLKNYYKKQK [F27C] the abundance fitness was 0.065 ± 0.041.
Work on VYKEIAITNGCINRMSKEELRAKLSETKLETRGVKDVLKKRLKNYYKKQK [F27T] yielded an abundance fitness of -0.483 ± 0.05.
VYKEIAITNGCINRMSKEELRAKLSEDKLETRGVKDVLKKRLKNYYKKQK [F27D] showed an abundance fitness of -0.652 ± 0.078.
VYKEIAITNGCINRMSKEELRAKLSEYKLETRGVKDVLKKRLKNYYKKQK [F27Y] gave an abundance fitness of -0.019 ± 0.046.
In the case of VYKEIAITNGCINRMSKEELRAKLSEAKLETRGVKDVLKKRLKNYYKKQK [F27A], the abundance fitness is reported as -0.065 ± 0.046.
Work on VYKEIAITNGCINRMSKEELRAKLSEMKLETRGVKDVLKKRLKNYYKKQK [F27M] yielded an abundance fitness of 0.026 ± 0.046.
In the case of VYKEIAITNGCINRMSKEELRAKLSESKLETRGVKDVLKKRLKNYYKKQK [F27S], the abundance fitness is reported as -0.307 ± 0.037.
With VYKEIAITNGCINRMSKEELRAKLSEIKLETRGVKDVLKKRLKNYYKKQK [F27I] the abundance fitness was 0.003 ± 0.054.
For VYKEIAITNGCINRMSKEELRAKLSEGKLETRGVKDVLKKRLKNYYKKQK [F27G], the abundance fitness was -0.723 ± 0.044.
Variant VYKEIAITNGCINRMSKEELRAKNSEFKLETRGVKDVLKKRLKNYYKKQK [L24N] has an abundance fitness of -1.03 ± 0.13.
With VYKEIAITNGCINRMSKEELRAKRSEFKLETRGVKDVLKKRLKNYYKKQK [L24R] the abundance fitness was -0.96 ± 0.043.
For VYKEIAITNGCINRMSKEELRAKKSEFKLETRGVKDVLKKRLKNYYKKQK [L24K], the abundance fitness was -0.973 ± 0.086.
VYKEIAITNGCINRMSKEELRAKISEFKLETRGVKDVLKKRLKNYYKKQK [L24I] gave an abundance fitness of -0.88 ± 0.13.
